Source: patent US20190233824A1, “PD-1 SPECIFIC APTAMERS” (THE METHODIST HOSPITAL SYSTEM, published 2019)

Biological target: PD-1 (PDCD1, recombinant full length) (Homo sapiens, UniProt Q15116 Q15116:25-288)
Assay: BLI; per-concentration fits 9.90, 4.17, 1.34 nM; phosphate pH 7.4, 137 mM NaCl, 2.7 mM KCl, 0.1% BSA, 0.01% Tween-20, 25 C
Details: tags: ACROBiosystems, produced in HEK293; label: 5' biotin (BLI) or FAM (flow); predicted hairpin-bulge / possible G-quadruplex
Procedure: Specific PD-1 5′ biotinylated DNA aptamer (Midland Oligos) were prepared in the concentration range of (10 nM and 100 nM). […] Octet Red analysis software (ForteBio) was used to analyze the sensorgram data.

PD-1 (PDCD1, recombinant full length), sequence (Q15116 25-288, one chain of several): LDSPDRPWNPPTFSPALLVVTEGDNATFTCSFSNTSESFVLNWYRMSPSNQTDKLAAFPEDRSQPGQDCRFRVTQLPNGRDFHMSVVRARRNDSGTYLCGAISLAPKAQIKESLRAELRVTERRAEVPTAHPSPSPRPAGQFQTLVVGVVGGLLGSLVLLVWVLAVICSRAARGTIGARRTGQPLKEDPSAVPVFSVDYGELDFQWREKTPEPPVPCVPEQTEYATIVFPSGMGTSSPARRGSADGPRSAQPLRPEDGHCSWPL

B1: fpf2 (10-150-373) (ssDNA)
DNA: CCGTATACATACCTGATAGCGTATGCGAGGAAGTGGGCTTGGTGTGGTGGGCTTCTCTCAGTAGGTGCATAAGCGCATGCATGC
Does B1 bind?
Result: binds
